In the nanobody polyreactivity screen of Harvey et al. (2022):

Experiment: yeast display, Sf9 membrane polyspecificity reagent, FACS + sequencing; frameworks hold sequencing errors
Method in brief: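 Polyreactivity labels are assigned by the sorting gate from which each nanobody was recovered. The gates were low and high (top ~1%), set on anti-HA fluorescence for expression and streptavidin fluorescence for reagent binding. Before sorting, galactose-induced (36–48 hours) yeast display cells were stained for 1 hour at 4 °C with 10% biotinylated, detergent-solubilized Sf9 membrane reagent.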

Sequence	polyreactivity (PSR sort gate)
QVQLVESGGGLVQAGGSLRLSCAASGIFTYTMGWYRQAPGKERELVAAITNGSTYYADSVKGRFTISRDNAKNTVYLQMNSLKPEDTAVYYCAADRSSAYRWRSAGYYKYDYWGQGTQVTVSS	low polyreactivity
QVQLVESGGGLVQAGGSLRLSCAASGIFVSDAMGWYSQAPGKVRELVAAIRYSGDSTYYADSVKGRFTISRDNAKNTVYLQMNSLKPEDTAVYYCAATKGWTRYEYWGQGTQVTVSS	low polyreactivity
QVQLVESGGGLVQAGGSLRLSCAASGIFVSYAMGWYRQAPGKERELVAAISWNGGSTYYADSVKGRFTISRDNAKNTVYLQMNSLKPEDTAVYDCAARAYFSYRGYVTDYDYWGQGTQVTVSS	high polyreactivity
QVQLVESGGGLVQAGGSLRLSCAASGIFVYYAMGWYRQSPGKERELVAAISSSGGSTYYADSVKGRFTISRDNAKNTVYLQMNSLKREDTAVYYCNTLAYPSDRFEYWGQGTQVTVSS	high polyreactivity
QVQLVESGGGLVQAGGSLRLSCAASGIIFAHYAMGWYRQAPGKERELVAAISRGGSSTYYADSVKGRFTISRDNAKNTVYLQMNSLKPEDTAVDYCAAYGPKVIGPKTSYSSSRYDYWGQGTQVTVSS	high polyreactivity
QVQLVESGGGLVQAGGSLRLSCAASGIIFAPYAMGWYRHPPGKERELVAAITDSGGSTYYADSVKGRFTISRDNSKNTVYLQMKSLKPEDTAVYYCAVDSNPPDWWAVIYGYWGQGTQVTVSS	low polyreactivity
QVQLVESGGGLVQAGGSLRLSCAASGIIFARNAMGWYRQAPGKERELVAAISSRSGSTYYADSVKGRFTISRDNAKNTVYVQMNSLKPEDTAVYYCNAVYAGRFGSHYWGQGTQVTVSS	high polyreactivity
QVQLVESGGGLVQAGGSLRLSCAASGIIFARYAMGWYRQAPGKERELVASINWTGGNTYADSVKGRFTISRDNAKNTVYLQMNSLKPEDTAVYYCARDFSPGSSDPKASISFDHWGQGTQVTVSS	low polyreactivity
QVQLVESGGGLVQAGGSLRLSCAASGIIFASNGMGWSRQPPGKERELVAAISSGGSTNYADSVKGRFTISRDNAKNTVYLQMNSLKPEDTAVYYCAAVRWYREYDYWGQGTQVTVSS	low polyreactivity
QVQLVESGGGLVQAGGSLRLSCAASGIIFATYAMGWYRQAPGKERELVASISTGDSTNYADSVKGRFTISRDNAKNTVYLQMNSLKPEDTAVDYCNADSYPYYVYGSNDYWGQGTQVTVSS	low polyreactivity
QVQLVESGGGLVQAGGSLRLSCAASGIIFATYAMGWYRQAPGKERELVASISTGDSTNYADSVKGRFTISRDNAKTTVYLQMNSLKPEDTAVYYCNADSYPYYVYGSNDYWGQGTQVTVSS	low polyreactivity
QVQLVESGGGLVQAGGSLRLSCAASGIIFAYNAMGWYRQAPGKERELVATITDSGGSTSYADSVKGRFTISRDNAKNTVYLQMNSLKPEDTAVYYCAVLPVYWYWRNYVYLSGYDYWGQVTQVTVSS	low polyreactivity
QVQLVESGGGLVQAGGSLRLSCAASGIIFAYYALGWYRQAPGKERELVAGITQSGGDTYYADSVKGRFTISRDNAKNTVYLQLNSLKPEDTAVYYCAAGWWGYDYWGQGTQVTVSS	high polyreactivity
QVQLVESGGGLVQAGGSLRLSCAASGIIFAYYAMGWYRQAPGKERELVAAIDYSGASTYYADSVKGRFTISRDNAKNTVYLQMNSLKPEDTAVYYCAKYQYDYYTYDYWGQGTQVTVSS	low polyreactivity
QVQLVESGGGLVQAGGSLRLSCAASGIIFAYYAMGWYRQAPGKERELVASITNTGSTYYADSVKGRFTISRDNAKNTVYLQMNSLKPEDTAVYYCNAVLSSNTKWRYPGDYWGQGTQVTVSS	low polyreactivity
QVQLVESGGGLVQAGGSLRLSCAASGIIFDCNSMGWYRQAPGKERELVAANTSSTDSTYYADSVKGRFTISRDNAKNTVYLQLNSLKPEDTAVYYCAAAYPSKTFDYWGQGTQVTESS	low polyreactivity
QVQLVESGGGLVQAGGSLRLSCAASGIIFDDNTMGWYRQAPGKERELVAAISSGGRTYYADSVKGRFTISRDNAKYTVYLQMNSLKPEDTAVYYFNVDIYTYIASNGELDYWGQGTQVTVSS	low polyreactivity
